Experimental data taken from patent CN112375147A (THE THIRD AFFILIATED HOSPITAL NAVAL MEDICAL UNIV OF PLA, dated 2021).

Molecular target: T1, YKL-40 (native, secreted); in serum of patients with hepatocellular carcinoma lung metastasis and in culture … (human, UniProt P36222 22-383)
T1 construct: mature; Endogenous secreted protein, not a recombinant construct; also called Chi3l1; BRP39
Assay: ELISA of YKL-40 left detectable in patient serum (1:100) after overnight incubation at 4 C with 10 ug/mL antibody, IgG control

T1 sequence (P36222 22-383): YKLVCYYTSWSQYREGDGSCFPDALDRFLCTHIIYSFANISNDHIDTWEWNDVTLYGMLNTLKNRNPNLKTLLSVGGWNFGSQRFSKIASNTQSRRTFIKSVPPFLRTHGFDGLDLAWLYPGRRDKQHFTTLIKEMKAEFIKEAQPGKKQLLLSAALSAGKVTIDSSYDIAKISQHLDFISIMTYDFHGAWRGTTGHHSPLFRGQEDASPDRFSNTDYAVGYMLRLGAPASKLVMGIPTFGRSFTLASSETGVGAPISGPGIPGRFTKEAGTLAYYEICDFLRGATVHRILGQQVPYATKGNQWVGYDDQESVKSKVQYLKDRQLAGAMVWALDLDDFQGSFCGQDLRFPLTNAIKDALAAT

binding result: binds
B1: 抗人YKL-40中和性单克隆抗体 (antibody, V domains shown)
VH: EVKLEESGGGLVQPGGSMKLSCAASGFTLSDAWMDWVRQSPEKGLEWVAEIRSKGNNHTPYYAESVKGRFTISRDDSRNSVYLQMNTLRAEDTGTYYCTRTVYYYGSSSCAMDYWGQGTSVTVSS
VL: DIQMTQSPASLSASVGETVTITCGASENIYGALNWYQRKQGKSPQLLIFGASNLADDMSSRFSGSGSGRQYSLKISSLHPDDVATYFCQNVLRTPWTFGGGTNLEIK
notes: Monoclonal antibody from mouse immunisation (hybridoma Hyb-NAY); also called N-AY; YKL-40中和性单抗
